Results reported in PMC4351601, “Structural basis for self-assembly of a cytolytic pore lined by protein and lipid” (Nature Communications, 2015).
Changes are numbered by the printed parent chain. Names may count otherwise.

B1: FraC mutein V60E/W149A (natural protein)
chain: SADVAGAVIDGAGLGFDVLKTVLEALGNVKRKIAVGIDNESGKTWTAMNTYFRSGTSDIELPHKVAHGKALLYNGQKNRGPVATGVVGVIAYSMSDGNTLAVLFSVPYDYNWYSNWWNVRVYKGQKRADQRMYEELYYHRSPFRGDNGAHSRGLGYGLKSRGFMNSSGHAILEIHVTKA
B2: FraC mutein V8C/K69C, oxidised (engineered disulfide bond between the N-terminal and beta-core regions) (natural protein)
chain: B1 chain with V8C, E60V, K69C, A149W
B3: fragaceatoxin C (FraC), wild type (natural protein)
chain: B1 chain with E60V, A149W
notes: no tag is mentioned; also called water-soluble FraC; monomeric FraC; source: E. coli BL21 (DE3), purified (Resource S cation exchange, Superdex 75 SEC)

What was measured:
[1] = molecular target: the molecule itself; assay: cell-based or functional assay
[2] = molecular target: the molecule itself; assay: crystal structure; transmembrane pore; water-soluble FraC incubated with lipid vesicles, solubilised and purified in detergent (DDM 0.015%), crystallised by the lipid sponge phase method, 20 °C; 3.1 Å; 24 bound lipids modelled as SM
[3] = molecular target: the molecule itself; assay: crystal structure; dimeric form (assembly intermediate); crystals with 100 mM POC, 3 mM DDM, 200 mM Li2SO4, PEG 8,000, sodium acetate pH 4.1-4.3; two crystal forms, 1.57 and 1.60 Å

| Protein | haemolytic activity (horse erythrocytes), relative to wild-type FraC [1] | stoichiometry N [2] | stoichiometry N [3] |
| --- | --- | --- | --- |
| B1 | ~16 % of wild type |  |  |
| B2 | 1 % of wild type |  |  |
| B3 |  | 8 | 2 |
